The nanobody polyreactivity screen of Harvey et al. (2022)

Test: yeast display, Sf9 membrane polyspecificity reagent, FACS + sequencing; frameworks hold sequencing errors
Outline: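 After 36–48 hours of galactose induction, yeast (Saccharomyces cerevisiae BJ5465) displaying a synthetic nanobody library were stained at 4 °C for 1 hour with 10% biotinylated, detergent-solubilized Sf9 membrane reagent. Streptavidin microbeads enriched the stained cells before FACS sorting into low and high (top ~1%) gates on anti-HA and streptavidin fluorescence. Each clone's polyreactivity label reflects its gate of origin.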

| Sequence | polyreactivity (PSR sort gate) |
| --- | --- |
| QVQLVESGGGLFQAGGSLRLSCAASGSIFSKYAMAWYRQAPGKERELVAAITLNGGSTYYADSVKGRFTISRDNAKNTVYLQMNSLNPEDTAVYYCAKSDRPWWGYYYQFDYWGQGTQVTVSS | low polyreactivity |
| QVQLVESGGGLFQAGGSLRLSCAASGSIFWSYDMGWYRQAPGKERELVATITSGDSTYYADSVKGRFTISRDNAKNTVYLQMNSLKPEDTAVYYCAAGTYYRRTYWHREYDYWGQGTQVTVSS | low polyreactivity |
| QVQLVESGGGLFQAGGSLRLSCAASGSTFGNNAMGWYRQAPGKERELVAAISRSGGNTYYADSVKGRFTISRDNAKNTVYLQMNSLKPEDTAVYYCAAGKLYAAGVYYLRRLYYWGQGTQVTVSS | high polyreactivity |
| QVQLVESGGGLFQAGGSLRLSCAASGSTFRFNAKGWYRQAPGKERQFVAAIRFTGGSTYYADSVKGRFTISRDNAKNTVYLQMNSLKPEDTAVYYCINADEYSTVEYDYWGQGTQVSVSS | low polyreactivity |
| QVQLVESGGGLFQAGGSLRLSCAASGSTFVYNDMGWYRKATGKERELVAYISTSGGSTYYADSVKGRFTISRDNAKNTVYLQMNSLKPEDTAVYYCNAKRSGPWFLHVPVYYWGQGTQVTVSS | low polyreactivity |
| QVQLVESGGGLFQAGGSLRLSCAASGSTFYNYAMGWYRQAPGIERELVAAISSGGSTNYADSVKGRFTISRDNAKYTVFLQMNSLKPEDSAVYYCARRHRVYASRNGHDYWGQGTQVTVSS | low polyreactivity |
| QVQLVESGGGLFQAGGSLRLSCAASGSTFYSYAMGWYRKAPGKERELVAAISRNGGYTYYADSVKGRFTISRDNAKNTVYLQMNSLKPEDTAVYYCAALRYVHGYDYWGQGTQVTGSS | high polyreactivity |
| QVQLVESGGGLFQAGGSLRLSCAASGSTIQQYAMGWYRQAPGKEREFVAAISWRGGRTYYADSVKGRFTISRDNAKNTVYLQMNRLKPEDTAVYYCAVDPSIYRLSAYYYDYWGQGTQVTVSS | low polyreactivity |
| QVQLVESGGGLFQAGGSLRLSCAATGRTIVIYAMRWYRQAPGKERELVAAISFSGDTAYYADSVKGRFTISRDNAKNTVYLQMNSLKPDHTAVYYCAAVTQPWSYYRRDYWGQGTQVTVSS | high polyreactivity |
| QVQLVESGGGLFQAGGSLRLSCAAYGRTFYVYALGWYRQAPGKEREFVAAITSSGGSTYYADSVKGRFTISRDNAKNTVYLQMNSLKPEDTAVYYCAADDWDWENDYWGQGTQVTVSS | low polyreactivity |
| QVQLVESGGGLFQAGGSLRLSCAPSGHIFFYYTMGWYRPAPGKERELVAGITIGGSTNYADSVKGRFTISRDNAKNTVYLQMNSLKPEDTAVYYCNVVKYVYIYSYWESYYWGQGTQVTVSS | low polyreactivity |
| QVQLVESGGGLFQAGGSLRLSCAPSGRIFRYNAMGWYRQAPGKERELVASISGSGGSTYYADSVKGRFTISRDNAKNTVYLQMNSLTPEDTAVYYCAAQWRYQYPESLESYYWGQGTQVTVSS | high polyreactivity |
| QVQLVESGGGLFQARGSLRLSCAASGSTFGFYARGWYRQATGKERELVAASSRGGSTNYADSVKGRFTISRDNAKNTVYLQLNSLKPEDTAGYYCAKAYHATSDYWGQGTQVTVSS | low polyreactivity |
| QVQLVESGGGLFQAVGSLRLSCAASGLFFIKYTMGWYRQAPGKERELFAVISGSGGSTYYADSVKGRFTISRDNAKNTVYLQMNSLKPEDTAVYYCAARSYALGYGGGYWGQGTQVTVSS | high polyreactivity |
| QVQLVESGGGLFQEGGSLRVSCAASGRIFIANAMGWYRQAPGKERELVAAISFSGGSTYYADSVKGRFTISRDNAKSTVYLQLNSLKPEDTAVYFCIKVGIRYYYGYDYWGHGTQVTVSS | high polyreactivity |
| QVQLVESGGGLGQAGCSLRLSCAASGSTFAVYAMGWYRQAPGKERELVATITGSGGSTYYADSVKGRFTISRDNAKNPVYLQMNSLKPEDNAVYYCAAEVVAWSLYEDFKTYDYWGQGTQVTVSS | low polyreactivity |
| QVQLVESGGGLGQAGGSLRLSCAASGFILRYNAMGWYRQAPGKERELVAAISYTGDRTYYADSVKGRFTISRDNAKNTVYLQMNSLKPEDTAVYYCKAGKGQRALVRIGSKLMYYWGHGTQVTVSS | high polyreactivity |
| QVQLVESGGGLGQAGGSLRLSCAASGITFGDYAMGWYIQAPGKERELVAAISTSGVRTYYADSVKGRFTISRDNAKNTVYLQMNSLKTEDTAVYYCAAKYYGEMYYWGQVTQVTVSS | low polyreactivity |
| QVQLVESGGGLGQAGGSLRLSCAASGLIFSPYDMGWYRQAPGKERELVGAISNGDSTNYADSVKGRFTISRDNAKNTVYLQMNSLKAEDTAVYYCNAAIPSWLEYEYWGQGTQVTVSS | low polyreactivity |
| QVQLVESGGGLGQAGGSLRLSCAASGLTFLDYAMGWSRQAPGKERELVAAITSGGSTNYADSVKGRFTISRDKAKNTVYLQMNSLKPEDTAVYYFATDLEVSAYDYWGQGTQVTVSS | low polyreactivity |
| QVQLVESGGGLGQAGGSLRLSCAASGNTFWAYAMGWYRQAPGKERELVAGISSRGSRTYFADSVKGRFTISRDNAKNTVYLQMNSLKPEDSAVDFCNALRTPPGYYPPFDYWGEGTQVTVSS | high polyreactivity |
| QVQLVESGGGLGQAGGSLRLSCAASGRIFGYYAMGGYRQAPGKARELVAGIDWSGGNTYYADSVKGRFTISRDNAKNTVYLQMNSLKPEDTAVYYCAKYKGRGDSGYDSWGQGTQVTVSS | low polyreactivity |

| Sequence | polyreactivity (PSR sort gate) |
| --- | --- |
| QVQLVESGGGLGQAGGSLRLSCAASGRIFIDYAMGWYRQAPGKERELVAAITYSTGGTYYGDSVKGRFTISRDNAKNTVYLQMNSLKPEDTAVYYCNATYVWPGRRRDGYWGQGTQVTVSS | low polyreactivity |
| QVQLVESGGGLGQAGGSLRLSCAASGRIFVDYAMGWYRQAPGKERELVAAINSGGSTNYADSVKGRFTISRDNAKNTVNLQMNSQKPEDTAVYYCNKDTLVYGYVQDYEYWGQGTQVTVSS | low polyreactivity |
| QVQLVESGGGLGQAGGSLRLSCAASGRTFRLYAMGCYRQAPGKERELVASITSTGRTYYADSVKGRFTISRDNAKNTVYLQMNSLKPEDTAVYYCNAVALSNCEYDYWGQGTQVTVSS | high polyreactivity |
| QVQLVESGGGLGQAGGSLRLSCAASGRTFYIYAMGWYRQAPGKERELVAANTWSTGGTYYADSVKGRFTISRDNAKNTVYLQMNSLKPEDTAVYYCAAGYDYKSTRHYYWGQGTQVTVSS | high polyreactivity |
| QVQLVESGGGLGQAGGSLRLSCAASGRTLGIYAMGWYRPAPGTERELVAAITNGDSTHYADSVKGRFTISRDNAKNTVYLQMNSLKPEDTAVYYCAAEDHYEGYGGYYWGQGTQVTVSS | low polyreactivity |
| QVQLVESGGGLGQAGGSLRLSCAASGSIFERNAMGWYRQAPGKERELVAAISSSGVSTYYADSVKGRFTISRDNAKNTVYLQMNSLKPEDTAVYYCNAVWRLRVRYGYWGQGTQVTVSS | high polyreactivity |
| QVQLVESGGGLGQAGGSLRLSCAASGSIFGRYAMGWYRQAPGKERELVTVITSGGSTNYADSVKGRFTISRDNAKNTVYLQMNSVKPEDTAVFYCAVRPYELHRLADQHGGDDYWGQGTQVTVSS | low polyreactivity |
| QVQLVESGGGLGQAGGSLRLSCAASGSIFHPYAMGWYRQAPGKERELVASITSSGGSTYYADSVKGRFTISRDTAKNTVYLQMNSMKPEDTAVYYCNAQFLVYFYWYSTTAYIMYYWGQGTQVTVSS | low polyreactivity |
| QVQLVESGGGLGQAGGSLRLSCAASGSIFYSYAMGSYRQATGKERELVAAINWSGGSTYYADSVKGRFTISRDNAKNTVSLLMNSLKPEDTAVYYCAAGPGDSGDDYWGQCTQVTVSS | low polyreactivity |
| QVQLVESGGGLGQAGGSLRLSCAASGSTFYKYAMGWYRQAPGKERELVASITWSGTSTYYADSVKGRFTISRDNQKNTVFLQMNSLKAEDTAVYYCAAPKLDDYDYWGQGTQVTVSS | low polyreactivity |
| QVQLVESGGGLGQAGGSLRLSCAASGYIFPIYAMGWYRQAPGKERELVAAITESGGSTYYADSVKGRFTISRDNAKNTVYLQMNSLKQEDTAVYYCAKEVVKHPRGKLDYWGQGTQVTLSS | low polyreactivity |
| QVQLVESGGGLGQAGGSLRLSCAASGYTFARNAMGWYRQAPGKEREMVAAINWSGTNTYYADSVKGRFTISRDNAKNTVYLQMNSLKPEDTAVYYCAKDLYFSGYEFDYWGQGTQVTVSS | low polyreactivity |
| QVQLVESGGGLGQAGGSLRLSSAASGRTFVFYAMGWYIQAPGKERELVAAITSSGGRTYYADSVKGRFTISRDNAKNTVYLQMNSLKPEDTAVYYCAAPYYPYKYDSWGQGTQVTGSS | low polyreactivity |
| QVQLVESGGGLGQAVGRLRLSCAASGSTFDPNTMGWYRQAPGKERELVATITSVDSTNYADSVKGRFTISRDNAKNTVYLQMNSLKPEDTAVSYCNAAYGGVFFYAYDYWGQGTQVTVSS | low polyreactivity |
| QVQLVESGGGLIQAGGSLRLSCAASGIIFYPYTMGWYRQAPGKERELVAAIRQSGTSTYYADSVKGRFTISRDNAKNTVYLQMNSLKPEDTAVYYCNADDHIYWRKGYDYWGQGTQVTVSS | low polyreactivity |
| QVQLVESGGGLLHAGGSLRLSCAASGRTFPSYAMGWYRQAPGKERELVAAISSRGSRTYYADSVKGRFTISRDNAKNTVYLQMYSLKPEDTAVYYCAAKNLWTRKSRYDYWGQGTQVTVSS | high polyreactivity |
| QVQLVESGGGLLKAGGSLRLSCAASGFTVDGYGMGWYRQAPGKERELVAVITSGGSTKYADSVKGRYTISRDNAKITVYLQMKSLKPEDTAVYYCNVVGGRYLYSAYDYWGQGTQVTVSS | low polyreactivity |
| QVQLVESGGGLLKAGGSLRLSCAASRITFYIYPIVWYRQAPGKERELVATISWSDGRTYYADSVKGRFTISRDNAEHTVYLQLYSLKPEDTAVYYCAADWWYYQFDYEYWGQGTPVTVSS | low polyreactivity |
| QVQLVESGGGLLLAGGSLRLSCAASGNIFRANTRGWYRQAPGKERELVASIRRSGGSTYYADSVKGRFTISRDNAKNTVYLQMNSLKPEDTAVYYCAAKSRPPYTDNYYWGQGTQVTVSS | high polyreactivity |
| QVQLVESGGGLLQAAGSLSLSCAASGSIFKYYAMGWYRQAPGKERELVAAISASGGSTSYADSVKGRFTISRDNAKNTVYLQMNSLKPEDTAVYYCAADGVSYAYRYDYWGQGTQVTVSS | low polyreactivity |
| QVQLVESGGGLLQAGGRLRLSCAASGSIFAAYTMGWYRQAPWKERELVAAISVSTVSTYYADSVKGRFTISRDNAKITVYLQMNSLKPEDTAVYYCNADPTDSYPQKYEHDSWGQGTQVTVSS | low polyreactivity |
